No end group written: not given here.
Target: recombinant murine [32P]RIIα (murine, UniProt P12367 1-401, 32P-labelled)
Test: peptide or protein array

Sequence of recombinant murine [32P]RIIα (P12367 whole entry): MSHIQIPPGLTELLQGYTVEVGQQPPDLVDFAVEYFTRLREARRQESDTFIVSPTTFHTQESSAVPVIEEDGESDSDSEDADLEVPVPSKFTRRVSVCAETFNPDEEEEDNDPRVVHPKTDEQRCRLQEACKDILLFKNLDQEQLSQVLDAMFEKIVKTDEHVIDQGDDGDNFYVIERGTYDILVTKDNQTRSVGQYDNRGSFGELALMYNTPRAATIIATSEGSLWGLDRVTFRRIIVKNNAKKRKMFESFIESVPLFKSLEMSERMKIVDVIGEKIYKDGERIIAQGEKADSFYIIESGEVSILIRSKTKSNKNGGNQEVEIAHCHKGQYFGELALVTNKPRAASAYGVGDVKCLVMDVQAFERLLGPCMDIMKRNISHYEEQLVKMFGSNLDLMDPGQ

binding result: binds
Binder: Ac-NINIEEAARFLVEKILVNHQ [Rab32 peptide 178–197]
